According to PMC8795592, “Human Dermcidin Protects Mice Against Hepatic Ischemia-Reperfusion–Induced Local and Remote Inflammatory Injury” (Frontiers in Immunology, 2021):

What was measured:
[1] = target: the molecule itself; test: SDS-PAGE with and without DTT; purified recombinant His-tagged protein run on SDS-PAGE in the presence or absence of the reducing agent dithiothreitol; shows disulfide-linked (covalent) dimers only
[2] = target: T1, recombinant EGFR corresponding to the extracellular domain (residue 25-645) (human, UniProt P00533 25-645); test: SPR; Nicoya Lifesciences OpenSPR (gold nanoparticles); DCD or DCD-C34S with 6×His tag immobilised on NTA sensor chip; EGFR extracellular domain applied as analyte at three concentrations; KD by Trace Drawer Kinetic Data Analysis v.1.6.1; conditions: both partners purified
T1 construct: epidermal growth factor receptor (EGFR), human, extracellular domain, residues 25-645; also called extracellular domain of human EGFR; epidermal growth factor receptor; source: bought: RayBiotech

[3] = target: T1, recombinant EGFR corresponding to the …; test: SPR; Biacore T200; DCD immobilised on CM5 chip; EGFR extracellular domain applied as analyte at 5 concentrations; KD by Biacore evaluation software 2.0 supposing a 1:1 binding ratio; conditions: both partners purified

Row | Binder | stoichiometry N [1] | Kd [2] [nM] | Kd [3] [nM]
1 | recombinant human dermcidin (full-length DCD precursor, residue 20-110) with N-terminal 6×His tag (natural protein, UniProt P81605 20-110, looked up, dermcidin (DCD), human, residues 20-110, without the N-terminal 19-aa signal leader peptide (residue 1-19); one sentence of the methods says residue 20-100; Without a reducing agent the preparation is a mixture of monomers and disulfide-linked dimers (through Cys34); results and legends print 20-110; also called recombinant DCD; source: E. coli BL21 (DE3) pLysS, purified; Triton X-114 extraction …) YDPEAASAPGSGNPCHEASAAQKENAGEDPGLARQAPKPRKQRSSLLEKGLDGAKKAVGGLGKLGKDAVEDLESVGKGAVHDVKDVLDSVL | 2 | 58.1 | 58.8
2 | DCD-C34S analog (recombinant human dermcidin residue 20-110 with a Cys to Ser substitution at residue 34, N-terminal 6×His tag) (natural protein, UniProt P81605 20-110, looked up, dermcidin (DCD), human, residues 20-110 without the signal leader peptide, with C34S; Made by similar procedures as m1; source: E. coli BL21 (DE3) pLysS, purified to homogeneity; Triton X-114 extraction to remove endotoxins; not shown: His6, N-terminal, kept) YDPEAASAPGSGNPSHEASAAQKENAGEDPGLARQAPKPRKQRSSLLEKGLDGAKKAVGGLGKLGKDAVEDLESVGKGAVHDVKDVLDSVL | – | 57.9 | –
